*1 amine or outer side, *2 acyl side, *3 side chain or, on linkers, in order; H or OH if unused. Bridges are numbered along the chain shown (N, C = ends). Where no end group is shown, it is not given here. [ ]: non-standard residue; d: D form. The star is where a group is joined. Hexa = hexylalanine = (2S)-2-aminononanoic acid, CCCCCCC[C@H](N[*:1])C(=O)[*:2]; Biotin = O=C1N[C@H]2[C@H](CS[C@H]2CCCCC(=O)*)N1; perfluorosulfone = not defined here; R8 = C=CCCCCCC[C@@](C)(N)C(=O)O; F2f = difluoro-L-phenylalanine; Cba = N[C@@H](CC1CCC1)C(=O)O; S5 = C=CCCC[C@](C)(N)C(=O)O; Anta = not defined here; Napa = not defined here; Dap = NC[C@H](N)C(=O)O; F3f = not defined here

First the molecules themselves.
B1: peptide 8b (peptide)
peptide: Ac-LTLEHYWAQLTSK-NH2
notes: Text says 3Phe to Leu or Tyr (8a and 9a)
B2: peptide ATSP-7040 (peptide)
peptide: LTF[R8]EYWAE[Cba][S5]SAA-NH2
modifications: staple 4-11; N-terminus assumed
SMILES: CC(C)C[C@H](N)C(=O)N[C@H](C(=O)N[C@@H](Cc1ccccc1)C(=O)N[C@]1(C)CCCCCCC=CCCC[C@@](C)(C(=O)N[C@@H](CO)C(=O)N[C@@H](C)C(=O)N[C@@H](C)C(N)=O)NC(=O)[C@H](CC2CCC2)NC(=O)[C@H](CCC(=O)O)NC(=O)[C@H](C)NC(=O)[C@H](Cc2c[nH]c3ccccc23)NC(=O)[C@H](Cc2ccc(O)cc2)NC(=O)[C@H](CCC(=O)O)NC1=O)[C@@H](C)O
B3: peptide 27b-M (peptide)
peptide: Ac-LT[F2f][R8]EY[Napa]AE[Cba]KSAA-NH2
modifications: staple (positions not given here); not fully specified (residue 11, bridges); reading uncertain
B4: peptide 10b-S4 (peptide)
peptide: Ac-LT[F2f]KEY[Hexa]AQ[Cba]KSAA-NH2
modifications: linker 4-11 via perfluorosulfone; reading uncertain; also: printed as LT(F2f)KEY(Hexa)AQ(Cba)(K)SAA
B5: peptide 11b-S4 (peptide)
peptide: Ac-LT[F2f]KEYWAE[Cba]KSAA-NH2
modifications: linker 4-11 via perfluorosulfone; reading uncertain; also: printed as LT(F2f)KEYWAE(Cba)KSAA
B6: peptide 9b (peptide)
peptide: Ac-LTYEHYWAQLTSK-NH2
notes: as for B1
B7: peptide 3a (peptide)
peptide: Biotin-LTFPHYWAELTSK-NH2
SMILES: CC(C)C[C@H](NC(=O)CCCC[C@@H]1SC[C@@H]2NC(=O)N[C@@H]21)C(=O)N[C@H](C(=O)N[C@@H](Cc1ccccc1)C(=O)N1CCC[C@H]1C(=O)N[C@@H](Cc1c[nH]cn1)C(=O)N[C@@H](Cc1ccc(O)cc1)C(=O)N[C@@H](Cc1c[nH]c2ccccc12)C(=O)N[C@@H](C)C(=O)N[C@@H](CCC(=O)O)C(=O)N[C@@H](CC(C)C)C(=O)N[C@H](C(=O)N[C@@H](CO)C(=O)N[C@@H](CCCCN)C(N)=O)[C@@H](C)O)[C@@H](C)O

The target in one assay is T1, SUMO-^25-109MDM2 (UniProt Q00987 25-109).
T1 construct: range 25-109; Expressed in Rosetta (DE3) pLysS cells, MW=23 297 Da, used with the SUMO tag on; not shown: SUMO fusion tag (protein purified on Ni-NTA)
In words: BLI, estimated in solution (competition assay) for acetylated construct.
By Kd is commonly meant the free concentration of one partner at which half of the binding sites on the other are occupied at equilibrium, for simple one-to-one binding. Consider Ac-LT[F2f][Dap]EYWAQ[Cba][Dap]SAA-NH2 (linker 4-11 via perfluoroaryl sulfone, Macrocyclic) [peptide 11b-S1], for which the Kd is 1 nM.

The target in the next assay is T1, SUMO-^25-109MDM2. In words: BLI, acetylated peptide (in solution competition assay). For orientation: In BLI a coated tip is dipped into the sample, and binding shifts an interference pattern.
Regarding B1, the Kd turned out to be 2700 nM.

Another assay deals with T1, SUMO-^25-109MDM2. Kind of assay: BLI, peptide on streptavidin sensors, global fit.
In turn, Biotin-LT[F2f][R8]EY[Hexa]AQ[Cba][S5]SAA-NH2 (staple 4-11, Macrocyclic) [peptide 10a-M] displayed a Kd of 5 nM.
On the same count and under the same terms, the value for Biotin-LT[F2f]EHYWAQ[Hexa]TSK-NH2 [peptide 19a] was 8 nM; that for Biotin-LT[F3f]EHY[Anta]AQ[Cba]TSK-NH2 (reading uncertain; also: printed as LT(F3f)EHY(Anta)AQ(Cba)TSK) [peptide 22a] was 10 nM.
Still for that read-out and setting: for Biotin-LT[F2f]EHYWAQ[F2f]TSK-NH2 [peptide 25a] the value was 20 nM.
Still for that read-out and setting: for Biotin-LT[F2f]EHY[Hexa]AQ[Cba]TSK-NH2 [peptide 10a] the value was 0.5 nM; for Biotin-LT[F2f]EHYWAQ[Cba]TSK-NH2 [peptide 11a], 2 nM.

A further assay concerns the target MDM2 in MDM2 overexpressing SJSA-1 cells (UniProt Q00987 1-491, limits assumed). In words: cell-based or functional assay.
Regarding Ac-LT[F2f][Dap]EY[Hexa]AQ[Cba][Dap]SAA-NH2 (bridge 4-11 via perfluorosulfone; reading uncertain) [peptide 10b-S1], the “IC50, viability of SJSA-1 cells” value is above 20000 nM.
Still for that read-out and setting: the value for Ac-LT[F2f][Dap]EYWAQ[Cba][Dap]SAA-NH2 (linker 4-11 via perfluoroaryl sulfone, Macrocyclic) [peptide 11b-S1] was 7800 nM; that for Ac-LT[F2f][R8]EFWAQ[Cba][S5]SAA-NH2 (staple 4-11) [peptide 11b-M] was 3200 nM; that for B2 was 3000 nM.
B3: the “IC50, viability of SJSA-1 cells” value is 2700 nM.
Regarding B4, the “IC50, viability of SJSA-1 cells” value is above 20000 nM.
Same read-out and setting: the value for Ac-LT[F2f]KEY[Napa]AQ[Cba]KSAA-NH2 (linker 4-11 via perfluorosulfone; reading uncertain) [27b-S4] was above 20000 nM; that for B5 was above 20000 nM.
For Ac-LT[F2f][R8]EY[Hexa]AQ[Cba][S5]SAA-NH2 (bridges not given here) [peptide 10b-M unclosed], the “IC50, viability of SJSA-1 cells” value amounted to 17000 nM.
Still for that read-out and setting: for Ac-LT[F2f][R8]EY[Hexa]AQ[Cba][S5]SAA-NH2 (staple 4-11) [peptide 10b-M] the value was 2400 nM.

A further assay has as its target T1, SUMO-^25-109MDM2. Kind of assay: BLI in-solution competition assay, free MDM2 read on immobilized 63a.
Ac-LTFEHYWAQYTSK-NH2 [peptide 7b] came in with a dissociation constant (Kd) of 490 nM.
The same measure, in the same setting: for B1 the value was 2500 nM.
Still for that read-out and setting: for B6 the value was 8700 nM.

Another assay deals with T1, SUMO-^25-109MDM2. Kind of assay: BLI, immobilized assay for biotinylated peptide.
Biotin-LT[F2f][R8]EY[Hexa]AQ[Cba][S5]SAA-NH2 (staple 4-11, Macrocyclic) [peptide 10a-M] registered a Kd of 3 nM.

For a further assay, the target named is T1, SUMO-^25-109MDM2. In words: BLI, biotinylated peptide immobilized.
Take B7: binding was put at a Kd of 80 nM.
